Reference: publication PMC6975058
Each block holds one substance with its values, some of them ahead of it.

Legend:
[1] = target: trastuzumab heavy chain produced alone in HEK293 (in vivo folded HC); experiment: denaturing, non-reducing SDS-PAGE; MiniProtean TGX Stain-free gels 4-20%, band densitometry; shows only disulfide-linked species
[2] = target: trastuzumab light chain produced alone in HEK293 (in vivo folded LC); experiment: SEC; SEC-HPLC under native conditions, Zenix-C SEC-300, mobile phase PBS, 0.35 ml/min, absorbance at 214 nm; the isolated chain alone
[3] = target: trastuzumab light chain produced alone in HEK293 (in vivo folded LC); experiment: denaturing, non-reducing SDS-PAGE; MiniProtean TGX Stain-free gels 4-20%, band densitometry; shows only disulfide-linked species
[4] = target: trastuzumab light chain, refolded in vitro by slow dialysis; experiment: SEC; SEC-HPLC under native conditions, Zenix-C SEC-300, mobile phase PBS, 0.35 ml/min, absorbance at 214 nm; the isolated chain alone

stoichiometry N [1]: 2
Substance: trastuzumab heavy chain produced alone in HEK293 (in vivo folded HC) (domain or fragment)

stoichiometry N [2]: 2
percent of LC in the 42 KDa band under denaturing conditions [3]: 55%
Substance: trastuzumab light chain produced alone in HEK293 (in vivo folded LC) (domain or fragment)

stoichiometry N [4]: 2
Substance: trastuzumab light chain, refolded in vitro by slow dialysis (domain or fragment)
